From PMC3154745

Molecular target: Full length mammalian HP1β (human or mouse (sequences identical)) (UniProt P83916)
Experiment: AUC

Full length mammalian HP1β, P83916 1-185 (natural protein; other documents disagree on this pair), sequence (P83916 whole entry): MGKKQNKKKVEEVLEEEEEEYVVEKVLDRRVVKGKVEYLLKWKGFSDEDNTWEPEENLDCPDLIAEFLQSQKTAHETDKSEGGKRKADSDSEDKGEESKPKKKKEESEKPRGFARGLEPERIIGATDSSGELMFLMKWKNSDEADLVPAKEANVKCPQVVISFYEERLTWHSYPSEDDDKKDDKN

Kd: 500 nM
Substance: Full length mammalian HP1β, P83916 1-185 (natural protein; other documents disagree on this pair)
